The chains are these.
B1: F22158101 (h5A1-BI-001 Fc) (Fc fusion)
chain: EVQLLESGGGLVQPGGSLRLSCAASGYTNRIKCMGWFRQAPGKEREEVASISTGTGNTYYADSVKGRFTISQDKSKNTLYLQMNSLKAEDTAVYYCAADVRPDGFTCHYNSRGQGTLVTVSS
notes: VHH-Fc format; not shown: Fc of the VHH-Fc format
B2: F22158103 (h5A1-BI-003 Fc) (Fc fusion)
chain: EVQLLESGGGLVQPGGSLRLSCAASGYTNRLKCMGWFRQAPGKEREEVASISTGTGNAYYADSVKGRFTISQDKSKNTLYLQMNSLKAEDTAVYYCAADVRPDGTTCHYNKRGQGTLVTVSS
notes: as for B1
B3: F22158107 (h5A1-BI-007 Fc) (Fc fusion)
chain: EVQLLESGGGLVQPGGSLRLSCAASGYTNRLKCMGWFRQAPGKEREEVASISTGTGNAYYADSVKGRFTISQDKSKNTLYLQMNSLKAEDTAVYYCAADVRPDGRTCHYNSRGQGTLVTVSS
notes: as for B1
B4: F221581013 (h5A1-BI-013 Fc) (Fc fusion)
chain: EVQLLESGGGLVQPGGSLRLSCAASGYTNRLKCMGWFRQAPGKEREEVASISTGTGNTYYADSVKGRFTISQDKSKNTLYLQMNSLKAEDTAVYYCAADVRPFGTTCHYNKRGQGTLVTVSS
notes: VHH-Fc format; also called F22158113; not shown: Fc of the VHH-Fc format
B5: F22158109 (h5A1-BI-009 Fc) (Fc fusion)
chain: EVQLLESGGGLVQPGGSLRLSCAASGYTNRIKCMGWFRQAPGKEREEVASISTGTGNSYYADSVKGRFTISQDKSKNTLYLQMNSLKAEDTAVYYCAADVRPDGRTCHYNKRGQGTLVTVSS
notes: as for B1
B6: F22158108 (h5A1-BI-008 Fc) (Fc fusion)
chain: EVQLLESGGGLVQPGGSLRLSCAASGYTNRIKCMGWFRQAPGKEREEVASISTGTGNAYYADSVKGRFTISQDKSKNTLYLQMNSLKAEDTAVYYCAADVRPDGRTCHYNSRGQGTLVTVSS
notes: as for B1
B7: F221581014 (h5A1-BI-014 Fc) (Fc fusion)
chain: EVQLLESGGGLVQPGGSLRLSCAASGYTNRIKCMGWFRQAPGKEREEVASISTGTGNTYYADSVKGRFTISQDKSKNTLYLQMNSLKAEDTAVYYCAADVRPFGRTCHYNSRGQGTLVTVSS
notes: VHH-Fc format; also called F22158114; not shown: Fc of the VHH-Fc format
B8: F221581019 (h5A1-BI-019 Fc) (Fc fusion)
chain: EVQLLESGGGLVQPGGSLRLSCAASGYTNRIKCMGWFRQAPGKEREEVASISTGTGNAYYADSVKGRFTISQDKSKNTLYLQMNSLKAEDTAVYYCAADVRPHGRTCHYNSRGQGTLVTVSS
notes: VHH-Fc format; also called F22158119; not shown: Fc of the VHH-Fc format
B9: F221581012 (h5A1-BI-012 Fc) (Fc fusion)
chain: EVQLLESGGGLVQPGGSLRLSCAASGYTNRLKCMGWFRQAPGKEREEVASISTGTGNTYYADSVKGRFTISQDKSKNTLYLQMNSLKAEDTAVYYCAADVRPFGRTCHYNSRGQGTLVTVSS
notes: VHH-Fc format; also called F22158112; not shown: Fc of the VHH-Fc format
B10: F221581015 (h5A1-BI-015 Fc) (Fc fusion)
chain: EVQLLESGGGLVQPGGSLRLSCAASGYTNRIKCMGWFRQAPGKEREEVASISTGTGNTYYADSVKGRFTISQDKSKNTLYLQMNSLKAEDTAVYYCAADVRPFGTTCHYNKRGQGTLVTVSS
notes: VHH-Fc format; also called F22158115; not shown: Fc of the VHH-Fc format
B11: F221581021 (h5A1-BI-021 Fc) (Fc fusion)
chain: EVQLLESGGGLVQPGGSLRLSCAASGYTNRIKCMGWFRQAPGKEREEVASISTGTGNAYYADSVKGRFTISQDKSKNTLYLQMNSLKAEDTAVYYCAADVRPHGTTCHYNKRGQGTLVTVSS
notes: VHH-Fc format; also called F22158121; not shown: Fc of the VHH-Fc format
B12: F221581010 (h5A1-BI-010 Fc) (Fc fusion)
chain: EVQLLESGGGLVQPGGSLRLSCAASGYTNRLKCMGWFRQAPGKEREEVASISTGTGNTYYADSVKGRFTISQDKSKNTLYLQMNSLKAEDTAVYYCAADVRPDGRTCHYNKRGQGTLVTVSS
notes: VHH-Fc format; also called F22158110; not shown: Fc of the VHH-Fc format
B13: F221581018 (h5A1-BI-018 Fc) (Fc fusion)
chain: EVQLLESGGGLVQPGGSLRLSCAASGYTNRLKCMGWFRQAPGKEREEVASISTGTGNAYYADSVKGRFTISQDKSKNTLYLQMNSLKAEDTAVYYCAADVRPHGRTCHYNSRGQGTLVTVSS
notes: VHH-Fc format; also called F22158118; not shown: Fc of the VHH-Fc format
B14: F22158104 (h5A1-BI-004 Fc) (Fc fusion)
chain: EVQLLESGGGLVQPGGSLRLSCAASGYTNRIKCMGWFRQAPGKEREEVASISTGTGNAYYADSVKGRFTISQDKSKNTLYLQMNSLKAEDTAVYYCAADVRPDGTTCHYNKRGQGTLVTVSS
notes: as for B1
B15: F221581020 (h5A1-BI-020 Fc) (Fc fusion)
chain: EVQLLESGGGLVQPGGSLRLSCAASGYTNRLKCMGWFRQAPGKEREEVASISTGTGNAYYADSVKGRFTISQDKSKNTLYLQMNSLKAEDTAVYYCAADVRPHGTTCHYNKRGQGTLVTVSS
notes: VHH-Fc format; also called F22158120; not shown: Fc of the VHH-Fc format
B16: F221581016 (h5A1-BI-016 Fc) (Fc fusion)
chain: EVQLLESGGGLVQPGGSLRLSCAASGYTNRLKCMGWFRQAPGKEREEVASISTGTGNAYYADSVKGRFTISQDKSKNTLYLQMNSLKAEDTAVYYCAADVRPHGTTCHYNSRGQGTLVTVSS
notes: VHH-Fc format; also called F22158116; not shown: Fc of the VHH-Fc format
B17: F22158105 (h5A1-BI-005 Fc) (Fc fusion)
chain: EVQLLESGGGLVQPGGSLRLSCAASGYTNRLKCMGWFRQAPGKEREEVASISTGTGNTYYADSVKGRFTISQDKSKNTLYLQMNSLKAEDTAVYYCAADVRPDGFTCHYNKRGQGTLVTVSS
notes: as for B1
B18: F221581011 (h5A1-BI-011 Fc) (Fc fusion)
chain: EVQLLESGGGLVQPGGSLRLSCAASGYTNRIKCMGWFRQAPGKEREEVASISTGTGNTYYADSVKGRFTISQDKSKNTLYLQMNSLKAEDTAVYYCAADVRPFGTTCHYNSRGQGTLVTVSS
notes: VHH-Fc format; also called F22158111; not shown: Fc of the VHH-Fc format
B19: F221581017 (h5A1-BI-017 Fc) (Fc fusion)
chain: EVQLLESGGGLVQPGGSLRLSCAASGYTNRIKCMGWFRQAPGKEREEVASISTGTGNAYYADSVKGRFTISQDKSKNTLYLQMNSLKAEDTAVYYCAADVRPHGTTCHYNSRGQGTLVTVSS
notes: VHH-Fc format; also called F22158117; not shown: Fc of the VHH-Fc format
B20: F22158106 (h5A1-BI-006 Fc) (Fc fusion)
chain: EVQLLESGGGLVQPGGSLRLSCAASGYTNRIKCMGWFRQAPGKEREEVASISTGTGNTYYADSVKGRFTISQDKSKNTLYLQMNSLKAEDTAVYYCAADVRPDGRTCHYNSRGQGTLVTVSS
notes: as for B1
B21: F22158102 (h5A1-BI-002 Fc) (Fc fusion)
chain: EVQLLESGGGLVQPGGSLRLSCAASGYTNRIKCMGWFRQAPGKEREEVASISTGTGNTYYADSVKGRFTISQDKSKNTLYLQMNSLKAEDTAVYYCAADVRPDGTTCHYNKRGQGTLVTVSS
notes: as for B1
B22: FUSE-590 (h5A1-FA9-HK2_Fc) (Fc fusion)
chain: EVQLLESGGGLVQRGGSLRLSCTASGYTNRLKCMGWFRQAPGKEREEIASISTGTGNTYYSDSVKGRFTISRDKSRNTLYLQMKSLRAEDTAVYYCAADVRPRGTTCHYNSRGQGTQVTVSS
notes: as for B1
B23: FUSE-595 (h5A1-FA9-HK7_Fc) (Fc fusion)
chain: EVQLLESGGGLVQRGGSLRLSCTASGYTNRLKCMGWFRQAPGKEREEIATISTGTGNTYYADSVKGRFTISRDKSRNTLYLQMKSLKAEDTAVYYCAADVRPKGTTCHYNSRGQGTQVTVSS
notes: as for B1
B24: FUSE-592 (h5A1-FA9-HK4_Fc) (Fc fusion)
chain: EVQLLESGGGLVPRGGSLRLSCAASGYTNRLKCMGWFRQAPGKEREEVASISTGTGNTYYADSVKGRFTISQDKSRNTLYLQLNSLRAEDTAVYYCAADVRPRGTTCHYNSRGQGTQVTVSS
notes: as for B1
B25: FUSE-593 (h5A1-FA9-HK5_Fc) (Fc fusion)
chain: EVQLLESGGGLVQRGGSLRLSCAASGYTNRLKCMGWFRQAPGKEREEIASISTGTGNTYYSDSVKGRFTISRDKSRNTLYLQLNSLKAEDTAVYYCAADVRPKGTTCHYNSRGQGTQVTVSS
notes: as for B1
B26: FUSE-591 (h5A1-FA9-HK3_Fc) (Fc fusion)
chain: EVQLLESGGGLVPRGGSLRLSCAASGYTNRLKCMGWFRQAPGKEREEIATISTGTGNTYYADSVKGRFTISQDKSRNTLYLQMNSLKAEDTAVYYCAADVRPKGTTCHYNKRGQGTQVTVSS
notes: as for B1
B27: FUSE-594 (h5A1-FA9-HK6_Fc) (Fc fusion)
chain: EVQLLESGGGLVPRGGSLRLSCTASGYTNRLKCMGWFRQAPGKEREEIASISTGTGNTYYADSVKGRFTISQDKSRNTLYLQMNSLKAEDTAVYYCAADVRPRGTTCHYNSRGQGTQVTVSS
notes: as for B1

T1 sequence (Q01973 30-937): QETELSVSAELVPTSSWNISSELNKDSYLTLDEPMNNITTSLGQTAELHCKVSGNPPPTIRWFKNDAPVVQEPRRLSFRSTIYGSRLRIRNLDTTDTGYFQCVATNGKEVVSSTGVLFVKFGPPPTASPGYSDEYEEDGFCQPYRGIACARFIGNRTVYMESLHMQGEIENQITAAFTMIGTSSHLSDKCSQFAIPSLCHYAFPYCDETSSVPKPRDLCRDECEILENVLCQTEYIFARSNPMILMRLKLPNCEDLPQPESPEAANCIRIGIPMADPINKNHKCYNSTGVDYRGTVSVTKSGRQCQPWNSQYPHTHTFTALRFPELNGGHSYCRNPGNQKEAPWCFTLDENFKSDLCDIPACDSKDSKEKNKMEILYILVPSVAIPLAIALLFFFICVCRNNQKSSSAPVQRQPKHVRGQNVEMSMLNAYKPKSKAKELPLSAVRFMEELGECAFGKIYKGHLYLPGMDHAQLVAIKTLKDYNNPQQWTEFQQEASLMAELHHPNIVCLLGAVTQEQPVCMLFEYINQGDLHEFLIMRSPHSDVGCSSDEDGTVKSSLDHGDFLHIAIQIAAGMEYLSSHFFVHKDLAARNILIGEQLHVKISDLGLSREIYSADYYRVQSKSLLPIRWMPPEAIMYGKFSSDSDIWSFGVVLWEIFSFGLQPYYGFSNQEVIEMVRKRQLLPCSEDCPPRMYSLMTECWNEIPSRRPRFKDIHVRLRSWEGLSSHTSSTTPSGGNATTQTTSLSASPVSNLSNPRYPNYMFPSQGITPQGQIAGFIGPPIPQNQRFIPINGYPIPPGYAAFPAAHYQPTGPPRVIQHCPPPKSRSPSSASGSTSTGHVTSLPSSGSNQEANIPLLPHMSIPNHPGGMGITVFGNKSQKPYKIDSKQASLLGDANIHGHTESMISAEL

The first assay concerns the target T1, human ROR1 (Receptor Tyrosine Kinase-Like Orphan Receptor 1) on the cell surface (human, UniProt Q01973 30-937).
T1 construct: whole, on cells; engineered into B16-F10 (high density) and LS174T (low density) cells; also called B16-F10-ROR1-H; LS174T-ROR1-L
In words: flow cytometry, LS174T cells expressing human ROR1 (low density). The protocol:
(§1) As shown in the tables below, mouse B16-F10 melanoma (Tables 9A-9F) or LS174T human colorectal adenocarcinoma (Tables 9G-9H) cells genetically engineered to express human ROR1 at high and low densities, respectively, were stained for flow cytometric analysis with 100 nM of humanized variants of the ROR1 specific VHHs, 5A1 or 2A11 in either a VHH-Fc format or the Ac13 format shown in FIG. 1. Cells were analyzed on a flow cytometer after the primary test article was fluorescently tagged with a goat anti human IgG-Fc specific PE secondary antibody. The positive control used was PE conjugated anti-human ROR1 clone 2A2. Negative controls included a PE labeled mouse IgG Ab, the secondary antibody only, the combination of a Hen Egg Lysozyme (HEL) specific antibody plus goat anti human IgG-Fc specific PE and Fluorescence Minus One (FMO). Other controls included the non-humanized version of 5A1-Fc (FUSE179), 2A11-Fc (FUSE112) and 5A1-Ac13 (FUSE488). Humanized variants were generated using computational design (FUSE489, FUSE497-498, FUSE563, FUSE569-570, and BI-HU9-VHH11-33), a yeast display library in which mutations were inserted into the Vernier zone residues of human framework indicated in GenBank accession number M99660 (FUSE524-525, FUSE589, FUSE597-598, FUSE537, FUSE661-662, BI-HU9-HK and BI-HU9-HK-1), and a second yeast display library in which mutations were inserted into the Vernier zone residues of human framework indicated in GenBank accession number AWH66715 and amino acid position 103 within CDR3 (FUSE559, FUSE590-596, BI-HU9-VH9-1, FUSE654-655 and FUSE661-662. Affinity matured variants of FUSE559 were also generated using computational design (F22158101-21; Table 9H).
On the technique in general: In flow cytometry, cells or beads pass a laser one at a time.
Consider B1, for which the MFI worked out at 19700.
Consider B2, for which the MFI is 15800.
As for B3, the MFI worked out at 11500.
Still for that read-out and setting: the result for B4 reads 23800; that for B5, 35000.
On to B6, for which the MFI turned out to be 25100.
On the same count and under the same terms, the value for B7 was 28700.
Still for that read-out and setting: the result for B8 reads 33800; that for B9, 14200; that for B10, 29300.
Still for that read-out and setting: the value for B11 was 35800; that for B12 was 18700.
In the case of B13, the MFI was 17500.
Regarding B14, the MFI was determined as 28900.
The same measure, in the same setting: the value for B15 was 26500; that for B16 was 15000; that for B17 was 22300.
On the same count and under the same terms, the value for B18 was 19400; that for B19 was 28600; that for B20 was 17400.
On the same count and under the same terms, the result for B21 reads 20500.

The target of another assay is T1, human ROR1 (Receptor Tyrosine …). The assay can be described thus: flow cytometry, B16-F10 cells expressing human ROR1 (high density). The protocol:
as §1
Consider B22, for which the MFI worked out at 7330.
Consider B23, for which the MFI came out at 7180.
Same read-out and setting: the result for B24 reads 7540; that for B25, 7520.
The same measure, in the same setting: the result for B26 reads 7770; that for B27, 7910.

For the origin of these results see patent publication US20250313627A1 (FUSE BIOTHERAPEUTICS, published 2025).
